Laboratory results published in publication PMC12147180.

Assays:
CCR9 ΔCT (human) = CCR9 ΔCT (human) (UniProt P51686)
CCR9-RlucII (human) [1] = biological target: CCR9-RlucII (human) (UniProt P51686)
[2] = biological target: CCR9 C1 + C2 (CCR9-RlucII with all C-tail phosphorylation sites changed to alanine) (human) (UniProt P51686)
[3] = biological target: CCR9 C1 (CCR9-RlucII with S335A/T347A/S352A/S356A/S357A) (human) (UniProt P51686)
CCR9-RlucII (human) [4] = biological target: CCR9-RlucII (human) (UniProt P51686); remark: listed apart in the source

Gαq-Nluc, sequence (P50148 whole entry): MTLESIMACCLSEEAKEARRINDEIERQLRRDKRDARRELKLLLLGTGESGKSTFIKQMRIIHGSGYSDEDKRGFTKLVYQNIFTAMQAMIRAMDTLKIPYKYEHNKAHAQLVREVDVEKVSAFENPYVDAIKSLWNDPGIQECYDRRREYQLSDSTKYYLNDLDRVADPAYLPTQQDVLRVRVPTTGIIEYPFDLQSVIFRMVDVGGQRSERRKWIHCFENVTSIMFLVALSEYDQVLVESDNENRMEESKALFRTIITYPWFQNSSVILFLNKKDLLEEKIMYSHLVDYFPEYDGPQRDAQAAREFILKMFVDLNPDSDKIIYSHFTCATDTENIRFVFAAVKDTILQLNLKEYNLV
Gαi-Nluc, sequence (P63096 whole entry): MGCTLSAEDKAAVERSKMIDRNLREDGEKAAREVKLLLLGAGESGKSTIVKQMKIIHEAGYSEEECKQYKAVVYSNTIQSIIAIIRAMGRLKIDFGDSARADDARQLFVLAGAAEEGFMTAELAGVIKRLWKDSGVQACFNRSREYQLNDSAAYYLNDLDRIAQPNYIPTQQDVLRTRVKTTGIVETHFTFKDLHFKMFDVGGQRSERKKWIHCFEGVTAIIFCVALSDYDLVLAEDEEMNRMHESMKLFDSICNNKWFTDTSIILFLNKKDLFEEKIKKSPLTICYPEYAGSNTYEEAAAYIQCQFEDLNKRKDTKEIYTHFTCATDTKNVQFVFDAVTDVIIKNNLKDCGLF

| area over the Gαi–Gβγ dissociation curve (AOC), against CCR9 WT (CCR9 ΔCT (human)) [fold] | maximal decrease in BRET between Gαi-Nluc and Gβγ-smV (G protein dissociation) in HEK293 cells, 100 nM CCL25 (CCR9 ΔCT (human)) [%] | decrease in BRET between Gαi-Nluc and Gβγ-smV (G protein dissociation) in HEK293 cells with untagged CCR9, 100 nM CCL25; returns to basal levels within 10 min (CCR9-RlucII (human) [1]) [%] | Gαi-Nluc/Gβγ-smV dissociation BRET (AOC) in HEK293 cells with untagged CCR9 C1 + C2, 100 nM CCL25, against CCR9 WT [2] [fold] | Gαi-Nluc/Gβγ-smV dissociation BRET (AOC) in HEK293 cells with untagged CCR9 C1, 100 nM CCL25, against CCR9 WT [3] [fold] | decrease in BRET between Gαq-Nluc and Gβγ-smV (G protein dissociation) in HEK293 cells with untagged CCR9, 100 nM CCL25 (CCR9-RlucII (human) [4]) [%] | area over the Gαq–Gβγ dissociation curve (AOC), against CCR9 WT (CCR9 ΔCT (human)) [fold] | maximal decrease in BRET between Gαq-Nluc and Gβγ-smV (G protein dissociation) in HEK293 cells, 100 nM CCL25 (CCR9 ΔCT (human)) [%] | Substance |
| --- | --- | --- | --- | --- | --- | --- | --- | --- |
| 6 | 7 | 2 | 2 | 2 | – | – | – | Gαi-Nluc (from UniProt P63096 1-354) (natural protein) |
| – | – | – | – | – | 0 | 4 | 5 | Gαq-Nluc (from UniProt P50148 1-359) (natural protein) |
